Here are results for one molecule from US20090075921A1, “Bone/joint disease sensitivity gene and use thereof” (Riken, priority 2004, published 2009).

One assay deals with TGF-β1 (Homo sapiens, UniProt P01137). Briefly: Binding assay of asporin and TGF-β by pull-down assay method. Conditions: S-Protein agarose precipitate, Western blotting. Here is the method: With the pET29b-ASP13 and pET29b-ASP14 thus prepared as the templates, S-tagged human asporin D13 and D14 were prepared by performing a reaction in the presence of Transcend™ Biotin-Lysyl-tRNA using TNT Quick Coupled Transcription/Translation Systems (Promega). A reaction mixture comprising S-tagged human asporin D13 or D14 (10 μl) and TGF-β1 (0.1 μg) were mixed in buffer A (50 mM Tris (pH 7.5), 150 mM NaCl, 1% Triton X-100, complete protease inhibitor cocktail tablets (Roche)) at 4° C. for 1 hour, S-Protein agarose (Novagen, 12.5 μl) was added, and the mixture was further incubated at room temperature for 30 minutes. The precipitated resin was washed with buffer A five times, after which SDS-PAGE was performed under reducing conditions. S-tagged human asporin in the precipitate was detected by Western blotting using streptavidin-HRP (R&D Systems), and TGF-β1 was detected by Western blotting using biotinylated anti-TGF-β1 antibody (Genzyme). As a result of an examination of the binding of human asporin and TGF-β by the method described above, a band of TGF-β1 was detected in the precipitate comprising S-tagged human asporin D13 or D14 (FIG. 17).
TGF-β1, sequence (P01137 279-390 limits assumed, species assumed): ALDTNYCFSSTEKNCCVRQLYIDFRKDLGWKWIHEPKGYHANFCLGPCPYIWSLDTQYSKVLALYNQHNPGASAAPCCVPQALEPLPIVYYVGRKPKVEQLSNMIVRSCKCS
Using the recombinant mouse asporin purified by the method described in Example 31, its capability of binding with TGF-β1 was examined by the method described in Example 22 (pull-down assay method); as a result, it was confirmed that TGF-β1 was detected in the precipitate of purified mouse asporin (FIG. 26).
On the technique in general: Immunoblotting shows a protein as a band on a membrane.

The subject of a further assay is ATDC5 cells. Briefly: MTT assay of ATDC5 cell growth. Type of assay: cell-based, mouse. The method, then: ATDC5 was inoculated to a 12-well plate at 0.4×10^5 cells/well, and cultured using the medium 1-2 described in Example 19 for 24 hours, after which asporin and bFGF were added, and MTT assay was performed over time as described below. Specifically, the medium was removed by suction, the 1 mg/ml MTT reagent (DOJINDO) dissolved in DMEM/F12 was added at 1 ml/well, and the plate was incubated in a CO2 incubator for 1 hour. The supernatant was removed by suction, a Lysis reagent (86% isopropanol, 40 mM HCl, 1% SDS) was added to the plate at 0.2 ml/well, and extraction was performed at room temperature for 5 minutes. This extract was transferred to a 96-well plate, and OD550 was measured using a plate reader.
(In general: Tetrazolium dyes change colour on reduction, which living cells bring about.)

Another assay has as its system NHAC. Briefly: MTT assay of TGF-β1-stimulated cell growth in NHAC. Type of assay: cell-based, human. Conditions: TGF-β1 40 ng/ml with asporin 5 or 20 μg/ml, 5 days. The method, then: NHAC was inculated to a 12-well plate at 1×10^5 cells/well, and cultured in a DMEM/F12 containing 10% FBS supplemented with TGF-β1 (40 ng/ml) and asporin (5 or 20 μg/ml) for 5 days, after which the degree of cell growth was examined by the MTT assay method described below. Specifically, 3-(4,5-dimethyl-2-thiazolyl)-2,5-diphenyl-2H-tetrazolium bromide (MTT, Dojindo Laboratory) was dissolved in DMEM/F12 to obtain a concentration of 1 mg/ml, the solution was added to the cells after the medium was removed by suction, and the cells were cultured at 37° C. for 1 hour. Thereafter the medium containing MTT was discarded, and the cells were subjected to extraction treatment using a Lysis reagent (86% isopropanol, 40 mM hydrochloric acid, 1% SDS). This cell lysate was transferred to a 96-well plate, and the absorbance at 550 nm was measured using a microplate reader.

For assay [1], the system named is normal human articular chondrocytes of knee joint (NHAC). Briefly: Purified recombinant mouse asporin on TGF-β-stimulated gene expression in NHAC. It is filed as cell-based. The method, then: NHAC purchased from Cambrex Company was cultured in the growth medium attached to the kit (chondrocyte growth medium, CGM) in a 10-cm petri dish, after which the cells were scraped with 0.05% Trypsin/EDTA, and inoculated to a 12-well plate at 10^5 cells/well; on the following day, the medium was exchanged with DMEM/F12+0.2% FBS; 5 hours later, asporin was added. After the cells were further cultured for 12 hours, TGF-β1 (40 ng/ml) was added; from the cells cultured for 48 hours, total RNA preparation, cDNA synthesis, and real-time PCR were performed according to the methods described in Example 12.
Using a cDNA prepared by the method described in Example 35, the expression of the asporin and TGF-β1 genes was examined by real-time PCR. […] From this, it was shown that asporin negatively regulated the expression of both the asporin and TGF-β1 genes in the presence of TGF-β1.

B1: purified mouse asporin: recombinant mouse asporin expressed in Escherichia coli, refolded from insoluble fraction and purified by gel filtration (protein)
chain: DMEDTDDDDNDDDDNSLFPTKEPVNPFFPFDLFPTCPFGCQCYSRVVHCSDLGLTSVPNNIPFDTRMVDLQNNKIKEIKENDFKGLTSLYALILNNNKLTKIHPKTFLTTKKLRRLYLSHNQLSEIPLNLPKSLAELRIHDNKVKKIQKDTFKGMNALHVLEMSANPLENNGIEPGAFEGVTVFHIRIAEAKLTSIPKGLPPTLLELHLDFNKISTVELEDLKRYRELQRLGLGNNRITDIENGTFANIPRVREIHLEHNKLKKIPSGLQELKYLQIIFLHYNSIAKVGVNDFCPTVPKMKKSLYSAISLFNNPMKYWEIQPATFRCVLGRMSVQLGNVGK
modifications: left off: small tags and cut ends
Consider B1, for which the “binding to TGF-β1 (pull-down)” value with TGF-β1 is “bound to TGF-β1 in vitro”. Moreover, the “growth of ATDC5 cells (MTT, OD550)” value in the assay with ATDC5 cells (added alone, medium 1-2) was “suppressed the growth of ATDC5 cells concentration-dependently”. Moreover, in the assay with ATDC5 cells (addition of asporin 10 μg/ml), the “growth suppressive effect of bFGF on ATDC5 cells” value is “enhanced”. Also, the “cell growth of NHAC (MTT, absorbance at 550 nm)” value with NHAC is “suppressed concentration-dependently”. The “TGF-β1-stimulated increases in expression of the asporin and TGF-β1 genes” value in assay [1] (NHAC, cDNA of Example 35) is recorded as “both suppressed”. Also, in assay [1] (TGF-β1 40 ng/ml, 48 hours), the “TGF-β1-stimulated expression of the type II collagen and aggrecan genes” value is “suppressed the TGF-β1-stimulated expression of the type II collagen and aggrecan genes in NHAC concentration-dependently”.
